From US20220110851A1 (SKINMED, published 2022)
No end group written: not given here.

Each binder was assayed against acetylcholine receptor on AchR-overexpressed TE671 cells (assay: cell-based or functional assay).

Binder | AchR inhibition, TE671 cells, 400 µM nicotine [%] | AchR inhibitory rate, TE671 cells, 400 µM nicotine, 20 µM peptide [%] | IC50 value for AchR (AchR inhibitory effect in TE671 cells) [nM] | inhibitory ability on nicotinic acetylcholine receptors, in multiples compared with Spep-2 [times] | AchR inhibitory effect, Fura-2 fluorescence in TE671 cells after 1 µM acetylcholine [%]
WTWKGRKSLLR [Spep-2] | 100 | ~10 | 750 | – | –
WTWKGRKSLLR (also: palmitoyl conjugated, site not given here) [Palmitoyl-Spep-2] | – | – | 75 | – | –
RFRRGVRR [L1-13] | – | ~100 | – | – | –
RYAKHRKRQTR [L2-110] | 100 | ~100 | – | 8 | –
RARKKRKSLLRRQV [L3-27] | 100 | ~100 | – | 8 | –
PNGKVRKRIRRRYF [L3-28] | 100 | ~100 | – | 16 | –
SNVKRKRGRCKPYR [L3-37] | – | ~100 | – | 32 | –
WTWKGRDKLQM [Spep-4] | – | – | – | – | 17
WTWKGNKQVKF [Spep-10] | – | – | – | – | 47
